Experimental data from patent US20090162945.

Assays:
[1] = molecular target: Synthetic 43-mer histone H3 (1-40) peptide tri-methylated at lysine 9, …(me3)…-Tyr-Cys-(Ttds)-Lys-biotin
[2] = molecular target: Synthetic 43-mer histone H3 (1-40) peptide tri-methylated at lysine 27, …-Tyr-Cys-(Ttds)-Lys-biotin
Synthetic 43-mer histone H3 (1-40) peptide tri-methylated at lysine 27, …-Tyr-Cys-(Ttds)-Lys-biotin, sequence (chain, as listed by the source): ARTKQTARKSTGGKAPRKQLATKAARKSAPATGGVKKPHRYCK

Synthetic 43-mer histone H3 (1-40) peptide tri-methylated at lysine 9, …(me3)…-Tyr-Cys-(Ttds)-Lys-biotin, sequence (chain, as listed by the source): as above

| Protein | demethylation of synthetic H3K9 peptides, western blotting [1] | demethylation assay, immunoblotting of the methylation mark [2] | demethylation of H3K9me3 peptide, mass spectrometry [1] | formaldehyde release (demethylation-FDH-coupled assay) [1] | in vitro demethylation of synthetic peptide, western blotting [1] |
| --- | --- | --- | --- | --- | --- |
| Recombinant full-length histidine-tagged human JMJD2a (protein) MASESETLNPSARIMTFYPTMEEFRNFSRYIAYIESQGAHRAGLAKVVPPKEWKPRASYDDIDDLVIPAPIQQLVTGQSGLFTQYNIQKKAMTVREFRKIANSDKYCTPRYSEFEELERKYWKNLTFNPPIYGADVNGTLYEKHVDEWNIGRLRTILDLVEKESGITIEGVNTPYLYFGMWKTSFAWHTEDMDLYSINYLHFGEPKSWYSVPPEHGKRLERLAKGFFPGSAQSCEAFLRHKMTLISPLMLKKYGIPFDKVTQEAGEFMITFPYGYHAGFNHGFNCAESTNFATRRWIEYGKQAVLCSCRKDMVKISMDVFVRKFQPERYKLWKAGKDNTVIDHTLPTPEAAEFLKESELPPRAGNEEECPEEDMEGVEDGEEGDLKTSLAKHRIGTKRHRVCLEIPQEVSQSELFPKEDLSSEQYEMTECPAALAPVRPTHSSVRQVEDGLTFPDYSDSTEVKFEELKNVKLEEEDEEEEQEAAALDLSVNPASVGGRLVFSGSKKKSSSSLGSGSSRDSISSDSETSEPLSCRAQGQTGVLTVHSYAKGDGRVTVGEPCTRKKGSAARSFSERELAEVADEYMFSLEENKKSKGRRQPLSKLPRHHPLVLQECVSDDETSEQLTPEEEAEETEAWAKPLSQLWQNRPPNFEAEKEFNETMAQQAPHCAVCMIFQTYHQVEFGGFNQNCGNASDLAPQKQRTKPLIPEMCFTSTGCSTDINLSTPYLEEDGTSILVSCKKCSVRVHASCYGVPPAKASEDWMCSRCSANALEEDCCLCSLRGGALQRANDDRWVHVSCAVAILEARFVNIAERSPVDVSKIPLPRFKLKCIFCKKRRKRTAGCCVQCSHGRCPTAFHVSCAQAAGVMMQPDDWPFVVFITCFRHKIPNLERAKGALQSITAGQKVISKHKNGRFYQCEVVRLTTETFYEVNFDDGSFSDNLYPEDIVSQDCLQFGPPAEGEVVQVRWTDGQVYGAKFVASHPIQMYQVEFEDGSQLVVKRDDVYTLDEELPKRVKSRLSVASDMRFNEIFTEKEVKQEKKRQRVINSRYREDYIEPALYRAIME | GASC1 and its homolog JMJD2A appeared to have a comparable ability to demethylate synthetic H3K9 substrates | – | – | – | – |
| Recombinant full-length amino-terminally hexahistidine-tagged human GASC1 (protein) MEVAEVESPLNPSCKIMTFRPSMEEFREFNKYLAYMESKGAHRAGLAKVIPPKEWKPRQCYDDIDNLLIPAPIQQMVTGQSGLFTQYNIQKKAMTVKEFRQLANSGKYCTPRYLDYEDLERKYWKNLTFVAPIYGADINGSIYDEGVDEWNIARINTVLDVVEEECGISIEGVNTPYLYFGMWKTTFAWHTEDMDLYSINYLHFGEPKSWYAIPPEHGKRLERLAQGFFPSSSQGCDAFLRHKMTLISPSVLKKYGIPFDKITQEAGEFMITFPYGYHAGFNHGFNCAESTNFATVRWIDYGKVAKLCTCRKDMVKISMDIFVRKFQPDRYQLWKQGKDIYTIDHTKPTPASTPEVKAWLQRRRKVRKASRSFQCARSTSKRPKADEEEEVSDEVDGAEVPNPDSVTDDLKVSEKSEAAVKLRNTEASSEEESSASRMQVEQNLSDHIKLSGNSCLSTSVTEDIKTEDDKAYAYRSVPSISSEADDSIPLSTGYEKPEKSDPSELSWPKSPESCSSVAESNGVLTEGEESDVESHGNGLEPGEIPAVPSGERNSFKVPSIAEGENKTSKSWRHPLSRPPARSPMTLVKQQAPSDEELPEVLSIEEEVEETESWAKPLIHLWQTKSPNFAAEQEYNATVARMKPHCAICTLLMPYHKPDSSNEENDARWETKLDEVVTSEGKTKPLIPEMCFIYSEENIEYSPPNAFLEEDGTSLLISCAKCCVRVHASCYGIPSHEICDGWLCARCKRNAWTAECCLCNLRGGALKQTKNNRWAHVMCAVAVPEVRFTNVPERTQIDVGRIPLQRLKLKCIFCRHRVKRVSGACIQCSYGRCPASFHVTCAHAAGVLMEPDDWPYVVNITCFRHKVNPNVKSKACEKVISVGQTVITKHRNTRYYSCRVMAVTSQTFYEVMFDDGSFSRDTFPEDIVSRDCLKLGPPAEGEVVQVKWPDGKLYGAKYFGSNIAHMYQVEFEDGSQIAMKREDIYTLDEELPKRVKARFSTASDMRFEDTFYGADIIQGERKRQRVLSSRFKNEYVADPVYRTFLKSSFQKKCQKRQ | – | tri-methylated H3K27 and tri-methylated H4K20 appeared to be unaffected by GASC1 treatment | the majority of H3K9me3 peptide (approximately 80%) was converted to di- and mono-methylated H3-K9 after incubation of with GASC1 | recombinant His-tagged GASC1 released formaldehyde | Following 30 minutes incubation of pure tri-methylated H3K9 with GASC1 almost all tri-methyl H3K9 was converted to di- and mono-methyl H3K9 |
